The test has as its target purified monomeric human β-actin (G-actin) (human, UniProt P60709 1-375). Nature of the test: pull-down.

B1: sv1_(360–420ARM) peptide (peptide)
peptide: not shown
modifications: amino-terminal biotin
As for B1, the binding result is “binds”.

(Values after article PMC3286128 (Biochemistry, 2012).)
